The values below come from a protein production outcome set (Wang et al. 2014).

The data set is described as follows: label from the status in PepcDB records.
As to “MGEPFGGPLMGRLVSLLPSATDLIFELGLGEQLLGVSHCCDHPGAASLPVLTRSIIGSDLPQAEIDRAVSEAVRAGRALYTVDGPLLDRLRPDLVVTQGVCEVCAVTPGTVAEAVRFLPGCLPAEQVLSLEGKTFAGILADLRALARAAGVRERGEALAAESERRWNAIRPVGVQVPEPPRVLTLEWVDPPFYGGHWVPEQVAQAGGKDVLGHAGRDSGRTSWEDVVQLDPDVIVVMCCGYGLSDNAEFARQVLSHPELRAVRAGQVWGVDANAHFSRPSLGVVRGAEVLAALLRGEESAGESVRVRAELEHHHHHH”, the protein production entry is “not failed”.
The same measure for “MGFDFGTVLVFAVVAVGFALGGIAASRALGPKWPNPEKASIYECGERPVGVAWFNFNPRFYLVALVFLVFEVDIALTFPVVAVFKGWVAQGPGMAWVAFFELLVFTGILVVGLAWAWAHGDLEWIKTLGAPSEEAPARAEPRRAA”: “failed”.
“MGFFDSGIGGMTVLYEAIKVLPYEDYIFYADTLNVPYGEKSKGKVKEYIFNAAEFLASQNIKALVIACNTATSIAIEDLRRNFDFPIIGIEPAVKPAINKCTEERKRVLVVATNLTLKEEKFHNLVKEIDHHDLVDCLALPGLVEFAENFDFSEDKIIKYLKNELSSFDLKQYGTIVLGCTHFPFFKNSFEKLFGIKVDMISGSVGTAKQLKKVLADRNQLGKGSGSITFFNSGHKIVDQEVISKYKRLFEILDETQRSHVGH”: the protein production result is “failed”.
The same measure for “MGFHLRGNNDFAFKRLYINLPQNSQMRAQLRRLIDNGSDTVVVSDKQDADAFLDVLSENRVKTISSLTPQGVVREYRITYRFSFQLRDAHDNLLIPPSEITLFRDLSYNETQVLAKDYEEAALYRDMQGDIVNQLVRRLASVRLPSLEHHHHHH”: “not failed”; for “MGFLVPSEITVSEFLLDFLNKYSENISLATYNNYVSICKNYINPSIGKYKIQDLHPVHIQNYIDKLSYKLNPQSIKIHINILKLAIKRAYRLKLIKENVMDSIKAPLEHHHHHH”: “failed”.
The same measure for “MGFNVKTPLLATDVIIRLWDGENFKGIVLIERKYPPVGLALPGGFVEVGERVEEAAAREMREETGLEVRLHKLMGVYSDPERDPRAHVVSVVWIGDAQGEPKAGSDAKKVKVYRLEEIPLDKLVFDHKKIILDFLKGNY”: “not failed”; for “MGFSFLLATVQKERMKRRSRTRSRSRRRAKQDPKTWVARYIPQDLLIEILTRLPPKSVMRFKCVSKFWSSLLSSRYFCNRFLIVPSQPQPSLYMCLLDRYNYSKSLILSSAPSTSPYSFVFDQDLTIRKMGGFFLRILRGFIFFTRNLKARIYNPTTRQLVILPTIKESDIIAGPPYNILYFICHDPVNDRYKLLCTVSYASDNDLQNLKSELWIFVLEAGGSWKRVANEFPHHVPSHLDLNMNGVLYFLAWTDPHTCMLVSFDVRSEEFNTMQVPRNAGDTLPRQEKGVVNRVW”: “failed”; for “MGGASWADTAMGGKGRHPDKALTTVQVRALKVPGRYADGNGLYLVVEPSGSKRWLLRTIVQGRRRDIGLGGAGLVTLAEAREKALAYRKLARDGGDPLAERRKARATVPTFAEAAEQVHEEHKASWKNPKHAAQWITTLRTYANPHLGARRVDQIETPDVLRALSPIWLTKGETARRVRQRIGTVLDWAKAAGHRTGDNPVESVAKGLPKQGERDEHHAALPYAEVPAFVTRLQSSDHGEAARLAFEFLILTAARTSEVLRAEWREIDEAEALWTVPAARMKAGREHRVPLSKRSLEIVRRAKLLAGDSAFIFPGRSTGKPMSNMVFLMALRRMKLTVTAHGFRSSFRDWAAEATSLPREVAEMALAHTIENRVEAAYRRGDLLAKRREMMEQWSTFVASKPKGDKPHKSSA”: “failed”.
The same measure for “MGGDARRALFVPAPSPTLHRMLPDALRDTLEERLDATIESVASVRGGCIANACRLETDAAPFFLKHGPDEVARTFPGEAAGLEALGAADSPLVVPSVHDTAPATDDRPGFLVMEWVNPGREGRRFWDRFGEGLAALHRHTADAYGFGQDNFIGRLPQSNAWTDDWPTFFREQRLAPQVDMARERGRWRDGWGTALTTLYRRLPDILPRSPEPSVLHGDLWKGNYLVTAVGDPALVDPATYYGHREADLAMTELFGGYDDRFYDAYRSAWGLAPEYGTRRDVYNLYHLINHLNLFGGGYAAQVEDTLRPFK”: “failed”; for “MGGIARLYGDSALAHFSQAHVCVVGVGGVGSWAVEALARTGIGRLTLIDLDNVAESNVNRQLHALTGDFGKAKVTALRERITQINPQCEVFEIEDFVTEDNLPEYFGKGFDFVIDAIDQVRVKAAMAAYFVERKQPFVLSGGAGGQKNPALIQTADLSRVTHDPLLANLRYTLRKRYGFSRDTKANMRVPCVYSTENIVPPQSREACSADAAPQGLSCAGYGASMLVTASFGLYCAQAAVEHIADKKLEHHHHHH”: “failed”.
“MGGKRHQNSGKGGKGRAKDAASAPQPNAGKVTLEGRSFLYVGGRDCQVAHLRQIASSYGAELIHHDGGLREAVSRIDRVLPSVDCVFCPIDCISHDACLRVKTGCKKWGKAFVPLRNGSKSSLEHHHHHH”: the protein production entry is “not failed”.
For the sequence “MGGKTKKHAMRLFDRIAEKYDLLNRILSFGMDTKWRKRVVELILEVNPEKVLDLATGTGDVARLLKRKAPHLEITGLDSSSKMLEIAEKRLKDGEFIVGDAHNLPFYDRSFDAITVAFGFRNFSDRRRVLRECRRVLKRKGRLVILELLPPNTKRFTGKIYSFYLKTWVPFVGGLFSGDFHAYRYLSTSVLNFLTPDQIVEMMKEEGFEVSFEPLFFSVAGIFIGDLIWLEHHHHHH”, the protein production entry is on record as “failed”.
The same measure for “MGGMRWLLLAKQPALGGAAALEGVMMKAPWAWALAVRLPDGRIHVERHEERALTERYPWTRLPLLRGVVALFDALSVSYRALARSAELAGGEEVPRGALWGTVA”: “failed”; for “MGGSFGKKGASSATAAQVPLATETTPGLMSPSEKLKLSTLTTSIATSDFYASYDFMMHSIGLTSANNISLLSTGNISLQNILSEGNHFGVQPIVSSTTANASFLAGMLMAIFPKESELEVTVYFKTPSAFNPAQLTVIGSTSIGLGISDRSGLIIENGNAFGGIVKASAATETGSTYALSTSTWYICKFKMLTDDRFKVTLYSDSGTQLYSYTSTAAMFRADNATAHIGFKTQCKTATAGISLISIDLIEFKAKVSATRAKV”: “not failed”.
The same measure for “MGHERDWSLVQVALTDITARKKAEAYLEYLGKHDVLTKLHNRAFYSDELNRLERSALRPVSAIVIDLNGLKEANDKLGHDAGDALLRRVGEVLNGVVTAPNHAARIGGDEFAILLPGADKQVAAAMVDTVYELLKINNQFYSSAPLSLSLGVATTEAGETMESLVRRADMNMYEQKNAYYAALRNRSADNNDTTKGLEHHHHHH”: “not failed”; for “MGHHHHHHSHGLCYDLCRFGAVVAEDGYYVDEKKCEGCAFCFNVCPERAIEMENVKTGDLYVSKTEWGYFVHARLKPGEENTGRLVTEVKNRAKEIAEESNAEFLIVDSAPGVGCPVMASLTGVDAAIIVTEPTVSGLSDMLRILELCEHFRIRPFVVVNKFDLNVNIASEIESYCSENGVEFAGRVPFDKAIPEQIANLNFPFSGKAADKMVEIWKKLRE”: “failed”; for “MGHHHHHHSHMGNIPEAIASYRTALKLKPDFPDAYCNLAHCLQIVCDWTDYDERMKKLVSIVADQLEKNRLPSVHPHHSMLYPLSHGFRKAIAERHGNLCLDKINVLHKPPYEHPKDLKLSDGRLRVGYVSSDFGNHPTSHLMQSIPGMHNPDK”: “failed”.
The same measure for “MGHHHHHHSHMIEHDPVKPRQLPKTIGCSKNFPGKTALATREQVQWWLLQLAQELEERLTKDRNDNDRVATQLVVSIRVQGDKRLSSLRRCCALTRYDAHKMSHDAFTVIKNCNTSGIQTEWSPPLTMLFLCATKFSASAP”: “not failed”; for “MGHHHHHHSHMIRINEIKLPLDHEEGALLDAITKKLGIPAEKVISFNVFRRGYDARKKTNIHLIYTLDIIVEGDETALLAKFANDPHVRQTPDMEYKFVAKAPENLTERPIVIGFGPCGLFAGLVLAQMGFNPIIVERGKEVRERTKDTFGFWRKRTLNPESNVQFGEGGAGTFSDGKLYSQVKDPNFYGRKVITEFVEAGAPEEILYVSKPHIGTFKLVTMIEKMRATIIELGGEIRFSTRVDGLHMEDGQITGVTLSNGEEIKSRHVVLAVGHSARDTFEMLHERGVYMEAKPFSVGFRIEHKQSMIDEARFGPNAGHPILGAADYKLVHHCKNGRTVYSFCMCPGGTVVAATSEEGRVVTNGMSQYSRAERNANSAIVVGISPEVDYPGDPLAGIRFQRELESNAYKLGGENYDAPAQKIGDFLKGRDPSQLGDVEPSFTPGIKLTDLSKALPPFAVEAIREAIPAFDRKIKGFASEDGLLTGVETRTSSPVCIKRGKDFQSVNLKGFYPAGEGAGYAGGILSAGIDGIKVAEAVARDIVAAMENA”: “not failed”.
Take “MGHHHHHHSHMISWLTGEELHVEVLENVPLTTHNFVRKTFFTLAFCDFCRKLLFQGFRCQTCGYKFHQRCSTEVPLMCVNYDQLDLLFVSKFFEHHPIPQEEASLAETA”: the protein production entry was “not failed”.
The same measure for “MGHHHHHHSHMLPPEQWSHTTVRNALKDLLKDMNQSSLAKECPLSQSMISSIVNSTYYANVSAAKCQEFGRWYKHFKKTKDMM”: “not failed”; for “MGHHHHHHSHMNSCILQATVVEAPQLRYTQDNQTPVAEMVVQFPGLSSKDAPARLKVVGWGAVAQELQDRCRLNDEVVLEGRLRINSLLKPDGNREKQTELTVTRVHH”: “not failed”; for “MGHHHHHHSHMPSYTVTVATGSQWFAGTDDYIYLSLVGSAGCSEKHLLDKPFYNDFERGAVDSYDVTVDEELGEIQLVRIEKRKYWLNDDWYLKYITLKTPHGDYIEFPCYRWITGDVEVVLRDGRAKLARDDQIHILKQHRRKELETRQKQYRWMEWNPGFPLSIDAKCHKDLPRDIQFDSEKGVDFVLNYSKAMENLFINRFMHMFQSSWNDFADFEKIFVKISNTISERVMNHWQEDLMFGYQFLNGCNPVLIRRCTELPEKLPVTTEMVECSLERQLSLEQEVQQGNIFIVDFELLDGIDANKTDPCTLQFLAAPICLLYKNLANKIVPIAIQLNQIPGDENPIFLPSDAKYDWLLAKIWVRSSDFHVHQTITHLLRTHLVSEVFGIAMYRQLPAVHPIFKLLVAHVRFTIAINTKAREQLICECGLFDKANATGGGGHVQMVQRAMKDLTYASLCFPEAIKARGMESKEDIPYYFYRDDGLLVWEAIRTFTAEVVDIYYEGDQVVEEDPELQDFVNDVYVYGMRGRKSSGFPKSVKSREQLSEYLTVVIFTASAQHAAVNFGQ”: “failed”.
The same measure for “MGHHHHHHSHMRCQESMSAVLTAEQALKLVGEMFVYHMPFNRALGLELERYEKAFAQLAFNNQPMMVGNWAQSILHGGVIASALDVAAGLVCVGSTLTRHETISEDELRQRLSRMGTIDLRVDYLRPGRGNRFTATSSLLRAGNKVAVARVELHNEDQLYIASATATYMVG”: “failed”.
On to “MGHHHHHHSHMSGEKTVVCKHWLRGLCKKGDQCEFLHEYDMTKMSECYFYSKFGECSNKECPFLHIDPESKI”, for which the protein production entry is on record as “not failed”.
The same measure for “MGHHHHHHSHMSYKPNLAAHMPAAALNAAGSVHSPSTSMATSSQYRQLLSDYGPPSLGYTQGTGNSQVPQSKYAELLAIIEELGKEIRPTYAGSKSAMERLKRGIIHARGLVRECLAETERNARS”: “failed”.
The same measure for “MGHHHHHHSHMTHSDKPYKCDRCQASFRYKGNLASHKTVHTGEKPYRCNICGAQFNRPANLKTHTRIHSGEKPY”: “not failed”.
The same measure for “MGHHHHHHSHSPSPSSRVTVSRASSSRSVRTTRGKRKRVDVEESEASSSVSISHSASATGNVCIEEIDVDGKFIRLKNTSEQDQPMGGWEMIRKIGDTSVSYKYTSRYVLKAGQTVTIWAANAGVTASPPTDLIWKNQNSWGTGEDVKVILKNSQGEEVAQRSTVFKTTIPEEE”: “not failed”.
